Source: patent publication US20220409742A1, “NUCLEIC ACID NANOPARTICLES, PHARMACEUTICAL COMPOSITION COMPRISING SAME, DRUG COMPRISING DOXORUBICIN AND PREPARATION METHOD THEREFOR” (BAI YAO ZHI DA (BEIJING) NANOBIO TECHNOLOGY CO., LTD., priority 2018, published 2022)
Values joined by “and” are separate entries in the source; they are usually repeats but may differ in a detail not shown here. Identical values can stand only once. {Biotin} = biotin attached at the strand end

B1: D-6: conventional-sequence DNA nanoparticle, SEQ ID NO:114-116, without target head, thio modification (nucleic acid)
chain 1: CGCGCGCCCAGCAGCGTTCGGGGCGCCGC
chain 2: GCGGCGCCCCGTTCGGCCGGCAGGCGGC
chain 3: GCCGCCAGCCGGCCCATAGCGCTGGGCGCGCG
modifications: DNA, backbone and methylation of C not given here; three-strand DNA nanoparticle, phosphorothioate modification
B2: D-2: conventional-sequence DNA nanoparticle, SEQ ID NO:102-104, EGFRapt target head, thio modification (nucleic acid)
chain 1: CGCGCGCCCAGCAGCGTTCGCGGGCGGCGGCCTTAGTAACGTGCTTTGATGTCGATTCGACAGGAGGC
chain 2: CGCCGCCCGCGTTCGCCGCCAGCCGCC
chain 3: GGCGGCAGGCGGCCATAGCGCTGGGCGCGCG
modifications: DNA, backbone and methylation of C not given here; DNA nanoparticle with EGFR aptamer head, phosphorothioate modification
B3: D-7: conventional-sequence DNA nanoparticle, SEQ ID NO:117-119, without target head, thio modification (nucleic acid)
chain 1: CGCGCGCCCACGAGCGTTGCGGGCGCCGC
chain 2: GCGGCGCCCGCTTCGGCGGCAGGCGGC
chain 3: GCCGCCAGCCGCCCATAGCCGTGGGCGCGCG
modifications: DNA, backbone and methylation of C not given here; three-strand DNA nanoparticle, phosphorothioate modification
B4: R-15: extension fragment deformation+core short-sequence RNA nanoparticle, SEQ ID NO:120-122, 3′ biotin on a-strand, 2′F (nucleic acid)
chain 1: GCGGCGAGCGGCGAGGAGCGUUGGGGCCGGAGGCCGG
chain 2: CCGGCCUCCGGCCCCUUCGGGGCCAGCCGCC
chain 3: GGCGGCAGGCCCCCAUAGCCCUCGCCGCUCGCCGC
modifications: chain 1: 3' {Biotin}, sugars by position and backbone not given here; chain 2: chemistry not given here; chain 3: chemistry not given here; three-strand RNA nanoparticle, 2'-F modified
B5: R-17: extension fragment deformation+core short-sequence RNA nanoparticle, SEQ ID NO:126-128, 3′ biotin on a-strand, 2′F (nucleic acid)
chain 1: GCGGCGAGCGGCGAGGAGCGUUGGGGCCGGAGGCCGG
chain 2: CCGGCCUCCGGCCCCUUCGCCGCCAGCCGCC
chain 3: GGCGGCAGGCGGCCAUAGCCCUCGCCGCUCGCCGC
modifications: chain 1: 3' {Biotin}, sugars by position and backbone not given here; chain 2: chemistry not given here; chain 3: chemistry not given here; three-strand RNA nanoparticle, 2'-F modified
B6: R-19: extension fragment deformation+core short-sequence RNA nanoparticle, SEQ ID NO:132-134, 3′ biotin on a-strand, 2′F (nucleic acid)
chain 1: GCGGCGAGCGGCGAGCAGCGUUCGGGCCGGAGGCCGG
chain 2: CCGGCCUCCGGCCCGUUCGGCCCCAGCCGCC
chain 3: GGCGGCAGGGGCCCAUAGCGCUCGCCGCUCGCCGC
modifications: chain 1: 3' {Biotin}, sugars by position and backbone not given here; chain 2: chemistry not given here; chain 3: chemistry not given here; three-strand RNA nanoparticle, 2'-F modified
B7: R-16: extension fragment deformation+core short-sequence RNA nanoparticle, SEQ ID NO:123-125, 3′ biotin on a-strand, 2′F (nucleic acid)
chain 1: GCGGCGAGCGGCGAGCAGCGUUCGGGCCGGAGGCCGG
chain 2: CCGGCCUCCGGCCCGUUCGCCGCCAGCCGCC
chain 3: GGCGGCAGGCGGCCAUAGCGCUCGCCGCUCGCCGC
modifications: chain 1: 3' {Biotin}, sugars by position and backbone not given here; chain 2: chemistry not given here; chain 3: chemistry not given here; three-strand RNA nanoparticle, 2'-F modified
B8: R-18: extension fragment deformation+core short-sequence RNA nanoparticle, SEQ ID NO:129-131, 3′ biotin on a-strand, 2′F (nucleic acid)
chain 1: GCGGCGAGCGGCGAGCAGCGUUCGGGCCGGAGGCCGG
chain 2: CCGGCCUCCGGCCCGUUCGGCGCCAGCCGCC
chain 3: GGCGGCAGGCGCCCAUAGCGCUCGCCGCUCGCCGC
modifications: chain 1: 3' {Biotin}, sugars by position and backbone not given here; chain 2: chemistry not given here; chain 3: chemistry not given here; three-strand RNA nanoparticle, 2'-F modified

experiment: Doxorubicin loading rate, chemical loading (paraformaldehyde covalent linkage); type: physicochemical; conditions: doxorubicin molecules per nucleic acid nanoparticle carrier
Procedure: (1) Accurately weighing the doxorubicin (5.0 mg, 8.6 μmol, 40 eq.) and dissolving in the DEPC treated water (1.8 mL) and the PBS buffer solution (2.1 mL), adding 4% paraformaldehyde aqueous solution (0.4 mL) under cooling of an ice-water bath and uniformly mixing, enabling the mixed solution to be totally uniformly mixed with the RNA nanoparticles (215 nmol), and reacting for 72 hours at 4 DEG C. under a dark condition.
(2) Taking 10 μL of reaction solution and diluting for 10 times, using 50 μM of the doxorubicin aqueous solution and 310 ng/μL of the RNA nanoparticles as controls, and performing HPLC analysis according to equal volume injection. According to a peak area ratio of each component, it may be adjusted that reaction conversion is basically completed.
(3) Extracting the reaction solution by the chloroform (10 mL×3), and then adding 10 times of the anhydrous ethanol in volume, after uniformly mixing, keeping at 4 DEG C. in the dark and enabling a product to be adequately precipitated (4 hours). Centrifuging, transferring supernatant, and washing the solid product again by the ethanol, evaporating a solvent under reduced pressure and lower temperature, to obtain a loading product which is a dark red solid.
(5) Loading rate calculation:
1. preparing a known concentration of doxorubicin-PBS standard solution: 2 μM, 4 μM, 6 μM, 8 μM, and 10 μM, 100 μL each;
2. enabling the doxorubicin-loaded product to be dissolved in 100 μL of the PBS;
3. putting the standard solution and the doxorubicin-loaded product into a PCR plate, heating at 85 DEG C. for 5 min, and then cooling to the room temperature;
4. measuring an absorbance of the doxorubicin at 492 nm by using a microplate reader, drawing a standard curve (as shown in FIG. 11), and calculating the molar concentration of the doxorubicin in the loaded product;
5. measuring an absorbance of RNA at 260 nm by using a spectrophotometer, to obtain the mass concentration of the doxorubicin-loaded product contained in each sample; and
6. according to the doxorubicin molar concentration and the mass concentration of the doxorubicin-loaded product obtained by measuring, calculating a loading rate.
According to the chemical loading method (unless otherwise specified, the method is the same as that of Embodiment 5) of Embodiment 5, the above DNA nanoparticles in Embodiment 1, the RNA nanoparticles formed by the self-assembly of the R-1, R-2, R-3, R-4, R-5, R-6 and R-7 in Embodiment 2, and the DNA nanoparticles formed by the self-assembly of the D-2, D-6 and D-7 in Embodiment 4 are respectively used as doxorubicin loading carriers, doxorubicin loading rates measured are respectively as follows:
According to the chemical loading method (unless otherwise specified, the method is the same as that of Embodiment 5) of Embodiment 5, the RNA nanoparticles formed by the self-assembly of the previous R-15, R-16, R-17, R-18, R-19, R-20 and R-21 in Embodiment 11, and the DNA nanoparticles formed by the self-assembly of the D-8, D-9, D-10, D-11, D-12, D-13 and D-14 in Embodiment 12 are respectively used as doxorubicin loading carriers, doxorubicin loading rates measured are respectively as follows: […]

First: R-1: short-sequence RNA nanoparticle, strands SEQ ID NO:55-57, c/u 2′F modification (chain 1 GGAGCGUUGG; chain 2 CCUUCGCCGY; chain 3 CGGCCAUAGCCC; 2'-F C/U, chemistry not fully specified)
Second: R-2: short-sequence RNA nanoparticle, strands SEQ ID NO:58-60, c/u 2′F modification (chain 1 GCAGCGUUCG; chain 2 CGUUCGCCGY; chain 3 CGGCCAUAGCGC; 2'-F C/U, chemistry not fully specified)
The doxorubicin loading rate of the first is higher: 3.5 for the first, 2.4 for the second.

Going from “R-3: short-sequence RNA nanoparticle, strands SEQ ID NO:61-63, c/u 2′F modification (chain 1 CGAGCGUUGC; chain 2 GCUUCGCCGY; chain 3 CGGCCAUAGCCG; 2'-F C/U, chemistry not fully specified)” to “R-4: short-sequence RNA nanoparticle, strands SEQ ID NO:64-66, c/u 2′F modification (chain 1 GGAGCGUUGG; chain 2 CCUUCGGGGY; chain 3 CCCCCAUAGCCC; 2'-F C/U, chemistry not fully specified)”, the doxorubicin loading rate falls from 4.8 to 3.5.

First: R-5: short-sequence RNA nanoparticle, strands SEQ ID NO:67-69, c/u 2′F modification (chain 1 GCAGCGUUCG; chain 2 CGUUCGGCGY; chain 3 CGCCCAUAGCGC; 2'-F C/U, chemistry not fully specified)
Second: R-6: short-sequence RNA nanoparticle, strands SEQ ID NO:70-72, c/u 2′F modification (chain 1 GCAGCGUUCG; chain 2 CGUUCGGCCY; chain 3 GGCCCAUAGCGC; 2'-F C/U, chemistry not fully specified)
The doxorubicin loading rate of the first is higher: 12.5 for the first, 2.8 for the second.

First: B1
Second: B2
The doxorubicin loading rate of the first is lower: 11 for the first, 14 for the second.

For B3, the doxorubicin loading rate was 10.

experiment: Particle size measurement (DLS hydrodynamic size); type: physicochemical; conditions: not given
Description: 1. Preparing a potential sample (conventional-sequence DNA self-assembly product D-7) and putting into a sample pool, opening a sample pool cover of an instrument, and placing the instrument;
2. opening software, and clicking a menu, so a manual measurement parameter setting dialog box appears;
3. setting a software detection parameter; and then
4. clicking Ok to complete the settings, while a measurement dialog box appears, clicking Start to start, a DLS measurement value result of a hydrodynamic size of the self-assembly product D-7 is as follows:
1. Preparing a potential sample (7 groups of extension fragment deformation+core short-sequence RNA) and putting into a sample pool, opening a sample pool cover of an instrument, and placing the instrument;
4. clicking Ok to complete the settings, while a measurement dialog box appears, clicking Start to start, a DLS measurement value result of a hydrodynamic size of the 7 groups of extension fragment deformation+core short-sequence RNA is as follows:
(1) Preparing a potential sample (7 groups of extension fragment deformation+core short-sequence DNA) and putting into a sample pool, opening a sample pool cover of an instrument, and placing the instrument;
(2) opening software, and clicking a menu, so a manual measurement parameter setting dialog box appears;
(3) setting a software detection parameter; and then
(4) clicking Ok to complete the settings, while a measurement dialog box appears, clicking Start to start, a DLS measurement value result of a hydrodynamic size of the 7 groups of extension fragment deformation+core short-sequence DNA is as follows: […]

Going from B4 to B5, the Mean particle size rises from 6.808 nm to 7.592 nm.

Going from B6 to B7, the Mean particle size rises from 6.936 nm to 6.978 nm.

With B8 the Mean particle size was 7.520 nm.

same assay, conditions: detection times 1-3, listed as 1

With B3 the “Particle size Z-Ave, single detection” value was 10.76 nm·days and 13.9 nm·days and 10.36 nm·days.

same assay, conditions: summary of 3 detections

In the case of B3, the “Particle size Z-Ave, Experiment result” value is reported as 12.33 d.nm(±1.57 d.nm).
